Results from patent publication US20240101675A1 (BIOLOJIC DESIGN, published 2024).
Like-named read-outs stand apart in the source and are kept apart here. One block for each binder: values may come before it.

Tests used:
[1] = target: T1, hTSLP-His (ACRO biosystems cat: TSP-H52Hb) (human, UniProt Q969D9 29-159, limits assumed); assay: competition ELISA: hTSLP-His pre-mixed with soluble TSLP-R as competitor, plate coated with TSLP-R-Fc
T1 construct: bought; not shown: His tag

[2] = target: T1, hTSLP-His (ACRO biosystems cat: …); assay: blocking ELISA: competitor mixed with 3 nM hTSLP-His, then on a plate coated with TSLP-R-Fc; bound hTSLP-His by anti-His-HRP
[3] = target: T2, recombinant human PD-1 tagged with histidine tag (hPD-1-His) (human, UniProt Q15116 25-167, limits assumed); assay: yeast surface display flow cytometry: scFv on yeast, 111 nM hPD-1-His, anti-His-APC; median RFU
T2 construct: bought (Reprokine); not shown: histidine tag

[4] = target: T3, recombinant human OX40 tagged with histidine tag (hOX40-His) (human, UniProt P43489 29-216); assay: direct ELISA, antibody coated, hOX40-His titrated 0 to 500 nM
T3 construct: bought (Reprokine); also called hOX-His; not shown: histidine tag
T3 sequence (looked up): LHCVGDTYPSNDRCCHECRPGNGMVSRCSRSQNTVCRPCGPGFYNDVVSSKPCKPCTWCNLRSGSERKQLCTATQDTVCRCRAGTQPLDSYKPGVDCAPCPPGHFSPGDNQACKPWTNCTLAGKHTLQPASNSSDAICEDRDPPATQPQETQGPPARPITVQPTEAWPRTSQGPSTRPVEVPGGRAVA

[5] = target: T3, recombinant human OX40 tagged with …; assay: direct ELISA: antibody coated on the plate, hOX40-His titrated, anti-His-HRP
[6] = target: T2, recombinant human PD-1 tagged with …; assay: direct ELISA: antibody coated on the plate, hPD-1-His titrated, anti-His-HRP
[7] = target: T2, recombinant human PD-1 tagged with …; assay: yeast surface display scFv, flow cytometry
[8] = target: T4, recombinant human GITR tagged with histidine tag (hGITR-His) (human, UniProt Q9Y5U5 26-161, limits assumed); assay: yeast surface display scFv, flow cytometry
T4 construct: bought (Reprokine); not shown: histidine tag
T4 sequence (looked up): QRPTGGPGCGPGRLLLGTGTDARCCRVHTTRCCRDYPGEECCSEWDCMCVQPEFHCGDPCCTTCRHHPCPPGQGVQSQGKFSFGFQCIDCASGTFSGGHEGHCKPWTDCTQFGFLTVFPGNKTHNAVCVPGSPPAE

[9] = target: T4, recombinant human GITR tagged with …; assay: direct ELISA, antibody coated, hGITR-His titrated 0 to 865 nM
[10] = target: T2, recombinant human PD-1 tagged with …; assay: direct ELISA: antibody coated on the plate, hPD-1-His titrated, anti-His-HRP; remark: listed apart in the source
[11] = target: T4, recombinant human GITR tagged with …; assay: direct ELISA: antibody coated on the plate, hGITR-His titrated, anti-His-HRP
[12] = target: T5, PD-1 on engineered Jurkat effector cells (PD-1/PD-L1 Blockade Bioassay) (UniProt Q15116 25-288, limits assumed); assay: cell-based or functional assay
[13] = target: T2, recombinant human PD-1 tagged with …; assay: yeast surface display scFv, flow cytometry, 250 nM hPD-1-His
[14] = target: T5, PD-1 on engineered Jurkat effector …; assay: cell-based or functional assay; remark: listed apart in the source
[15] = target: T6, IL-4 (Homo sapiens (Human), UniProt P05112 25-153); assay: specificity ELISA: plate coated with 250 ng ligand, 100 nM IgG, anti-human Fc-HRP
T6 sequence: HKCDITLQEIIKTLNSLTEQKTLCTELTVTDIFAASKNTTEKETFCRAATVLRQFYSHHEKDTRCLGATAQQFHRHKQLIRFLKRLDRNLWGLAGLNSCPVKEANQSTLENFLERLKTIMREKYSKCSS

[16] = target: IL-2 (specificity ELISA of Example 6) (Homo sapiens (Human), UniProt P60568 21-153); assay: as above
[17] = target: BSA (UniProt P02769 25-607); assay: as above
[18] = target: T1, hTSLP-His (ACRO biosystems cat: …); assay: competition ELISA: 3 nM hTSLP-His pre-mixed with IgG, plate coated with TSLP-R-Fc
[19] = target: T7, recombinant human IL-13 (human, UniProt P35225 35-146); assay: SPR (BIAcore T200), IgG captured, hIL-13 as analyte 20 to 0.6 nM
T7 construct: also called rh-IL-13; rhIL-13

[20] = target: T7, recombinant human IL-13; assay: cell-based or functional assay
[21] = target: T1, hTSLP-His (ACRO biosystems cat: …); assay: cell-based or functional assay
[22] = target: T8, recombinant cynomolgus monkey IL-13 (cynomolgus monkey, UniProt Q0PW92 21-132); assay: ELISA, ligand coated, IgG titrated 1 to 1000 nM
T8 construct: also called rc-IL-13; cIL-13

[23] = target: T9, human TSLP (human, UniProt Q969D9 29-159); assay: ELISA, ligand coated, IgG titrated 1 to 1000 nM
T9 construct: also called hTSLP; h-TSLP

[24] = target: T10, cynomolgus monkey TSLP (cynomolgus monkey, UniProt A0A7N9CAT7 29-159); assay: ELISA, ligand coated, IgG titrated 1 to 1000 nM
T10 construct: also called cTSLP; cyno-TSLP
T10 sequence (A0A7N9CAT7 entry or part of it): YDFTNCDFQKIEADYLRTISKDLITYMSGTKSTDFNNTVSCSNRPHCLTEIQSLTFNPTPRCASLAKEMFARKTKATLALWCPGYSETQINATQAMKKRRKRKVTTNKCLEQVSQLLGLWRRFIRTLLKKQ

T7 sequence (P35225 35-146 limits assumed): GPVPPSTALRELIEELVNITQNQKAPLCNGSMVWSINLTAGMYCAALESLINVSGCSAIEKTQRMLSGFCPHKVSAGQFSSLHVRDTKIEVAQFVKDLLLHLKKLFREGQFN
Chain of IL-2 (specificity ELISA of Example 6) (P60568 21-153 limits assumed): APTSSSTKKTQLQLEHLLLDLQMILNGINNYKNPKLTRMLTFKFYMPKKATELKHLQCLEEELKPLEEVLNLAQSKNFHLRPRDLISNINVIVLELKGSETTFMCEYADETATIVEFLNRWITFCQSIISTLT
Chain of BSA (P02769 25-607 limits assumed): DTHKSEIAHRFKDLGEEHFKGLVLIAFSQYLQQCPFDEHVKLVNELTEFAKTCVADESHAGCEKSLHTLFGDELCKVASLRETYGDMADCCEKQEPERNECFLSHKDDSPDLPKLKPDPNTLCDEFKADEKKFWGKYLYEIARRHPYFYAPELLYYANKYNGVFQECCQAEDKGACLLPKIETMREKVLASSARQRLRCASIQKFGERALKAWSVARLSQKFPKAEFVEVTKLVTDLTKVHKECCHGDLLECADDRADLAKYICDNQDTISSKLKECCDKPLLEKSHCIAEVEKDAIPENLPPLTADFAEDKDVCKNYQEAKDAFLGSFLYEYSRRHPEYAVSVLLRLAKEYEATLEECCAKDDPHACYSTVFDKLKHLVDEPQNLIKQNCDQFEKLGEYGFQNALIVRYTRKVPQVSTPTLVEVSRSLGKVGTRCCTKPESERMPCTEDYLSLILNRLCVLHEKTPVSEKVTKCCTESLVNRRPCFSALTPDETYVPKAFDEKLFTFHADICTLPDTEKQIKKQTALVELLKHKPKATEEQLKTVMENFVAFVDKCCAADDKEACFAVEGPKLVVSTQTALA
T8 sequence (Q0PW92 entry or part of it): as the sequence (P35225 35-146 limits assumed) above, with G1S, R10K, M42V, S67N, H83R, L100V counted along it

IC50 [1]: 3 nM
IC50 (read off the curve) [2]: ~3 nM
B1: TSLP-R-Fc tag (ACRO biosystems TSR-H525a) (Fc fusion, UniProt Q9HC73 23-231, looked up)
chain: QGGAAEGVQIQIIYFNLETVQVTWNASKYSRTNLTFHYRFNGDEAYDQCTNYLLQEGHTSGCLLDAEQRDDILYFSIRNGTHPVFTASRWMVYYLKPSSPKHVRFSWHQDAVTVTCSDLSYGDLLYEVQYRSPFDTEWQSKQENTCNVTIEGLDAEKCYSFWVRVKAMEDVYGPDTYPSDWSEVTCWQRGEIRDACAETPTPPKPKLSK
notes: bought; also called TSLP receptor; not shown: Fc tag

binding result [3]: binds
B2: G2 (GITR Library) (scFv, V domains shown)
VH: QVQLVESGGGVVQPGRSLRLDCKASGITFSNSGMHWVRQAPGKGLEWVAVIWYDGSLRYYADSVKGRFTISRDNSKNTLFLQMNSLRAEDTAVYYCATNDDYWGQGTLVTVSS
VL: EIVLTQSPATLSLSPGERATLSCRASQSVSDNLAWYQQKPGQAPRLLIYDADNRATGIPARFSGSGSGTDFTLTISSLEPEDFAVYYCQQSSNLPRTFGQGTKVEIK
notes: also called Clone G2; not shown: linker

EC50 [4]: ~24 nM
EC50 (read off the curve) [5]: ~20 nM
EC50 (read off the curve) [6]: ~0.9 nM
B3: BDG32.008 (antibody, human IgG1, V domains shown)
VH: QVQLVESGGGVVQPGRSLRLDCKASGIDFSNSGMHWVRQAPGKGLEWVAVIWYDGSLRYYADSVKGRFTISRDNSKNTLFLQMNSLRAEDTAVYYCATNDDYWGQGTLVTVSS
VL: EIVLTQSPATLSLSPGERATLSCRASQSVEHYLAWYQQKPGQAPRLLVYDASNRATGIPARFSGSGSGTDFTLTISSLEPEDFAVYYCQQYSNWPLTFGQGTKVEIK
notes: human IgG1 format of clone 3212ACOXC7A

binding result [7]: binds
binding result [8]: binds
B4: G5 (GITR Library) (scFv, V domains shown)
VH: QVQLVESGGGVVHPGRSLRVDCKASGITFSNSGMHWVRQAPGKGLEWVAVIWYDGSLRYYADSVKGRFTISRDNSKNTLFLQMNSLRAEDTAVYYCATNDDYWGQGTLVTVSS
VL: EIVLTQSPATLSLSPGERATLSCRASQSVSDNLAWYQQKPGQAPRLLIYDADNRATGIPARFSGSGSGTDFTLTISSLAPEDFAVYYCQQSSNLPRTFGQGTKVEIK
notes: not shown: linker

EC50 [9]: ~4 nM
EC50 (read off the curve) [10]: ~3 nM
EC50 (read off the curve) [11]: ~4 nM
IC50, cellular reporter PD1/PDL1 blocking assay (PD-1 dependent luminescence) [12]: ~614 nM
B5: BDG32.005 (antibody, human IgG1, V domains shown)
VH: QVQLVESGGGVVQPGRSLRLDCKASGITFSNSGMHWVRQAPGKGLEWVAVIWYDGSLRYYADSVKGRFTISRDNSKNTLFLQMNSLRAEDTAVYYCATNDDYWGQGTLVTVSS
VL: EIVLTQSPATLSLSPGERATLSCRASQSVSDNLAWYQQKPGQAPRLLIYDADNRATGIPARFSGSGSGTDFTLTISSLEPEDFAVYYCMQSSNLARTFGQGTKVEIK
notes: human IgG1 format

binding result [8]: binds
binding result [13]: binds
B6: G1 (GITR Library) (scFv, V domains shown)
VH: QAQLVESGGGVVQAGRSLRLDCKASGITFSNRGMHWVRQAPGKGLEWVAVIWYDGSLRYYADSVKGRFTISRDNSKNTLFLQMNSLRAEDTAVYYCATNDDYWGQGTLVTVSS
VL: EIVLTQSPATLSLSPGERATLSCRASQSVSDNLAWYQQKPGQAPRLLIYDADNRATGIPARFSGSGSGTDFTLTISSLEPEDFAVYYCQQSSNLPRTFGQGTKVEIK
notes: not shown: linker

binding result [7]: binds
binding result [8]: binds
B7: G8 (GITR Library) (scFv, V domains shown)
VH: QVQLVESGGGVVQPGRSLRLDCKASGITFSNSGMHWVRQAPGKGLEWVAVIWYDGSLRYYADSVKGRFTISRDNSKNTLFLQMNSLRAEDTAVYYCASNDDYWGQGTLVTVSS
VL: EIVLTQSPATLSLSPGERATLSCRASQSVSDNLAWYQQKPGQAPRLLIYDADNRATGIPARFSGSGSGTDFTLTISSLEPEDFAVYYCQQSSNLPRTFGQGTKVEIK
notes: not shown: linker

EC50 [9]: ~13 nM
EC50 (read off the curve) [10]: ~2 nM
B8: BDG32.004 (antibody, human IgG1, V domains shown)
VH: QVQLVESGGGVVQPGRSLRLDCKASGFTFSNSGMHWVRQAPGKGLEWVAVIWYDGSLRYYADSVKGRFTISRDNSKNTLFLQMNSLRAEDTAVYYCATNDDYWGQGTLVTVSS
VL: EIVLTQSPATLSLSPGERATLSCRASQSVSDNLQWYQQKPGQAPRLLIYDADTRATGIPARFSGSGSGTDFTLTISSLEPEDFAVYYCQQSSNLPRTFGQGTKVEIK

EC50 [4]: ~26 nM
EC50 (read off the curve) [5]: ~30 nM
IC50 (read off the curve); PD-1/PD-L1 Blockade Bioassay, luciferase RLU [14]: ~2 nM
EC50 (read off the curve) [6]: ~0.6 nM
IC50, cellular reporter PD1/PDL1 blocking assay (PD-1 dependent luminescence) [12]: ~2.5 nM
B9: BDG32.007 (antibody, human IgG1, V domains shown)
VH: QVQLVESGGGVVQPGRSLRLDCKASGITFSNSGMHWVRQAPGKGLEWVAVIWYDGSKTYYADSVKGRFTISRDNSKNTLFLQMNSLRAEDTAVYYCATNDDYWGQGTLVTVSS
VL: EIVLTQSPATLSLSPGERATLSCRASQSVEHYLAWYQQKPGQAPRLLIYDAGNRATGIPARFSGSGSGTDFTLTISSLEPEDFAVYYCQQYSDWPLTFGQGTKVEIK
notes: human IgG1 format of clone 3212ACOXC5A

IC50 [18]: 0.41 nM
Kd [19]: 3.65 nM
koff [19]: 0.0157 s⁻¹
kon [19]: 4.31e+06 M⁻¹ s⁻¹
IC50, inhibition of IL-13 signaling cascade in HEK-Blue IL-4/IL-13 cells [20]: 1.3 nM
IC50, inhibition of TSLP dependent pSTAT5 activation in MUTZ5 cells [21]: 13 pM
EC50 [22]: 7.1 nM
EC50 [23]: 2.5 nM
EC50 [24]: 8.2 nM
B10: BDG33.023 (antibody, human IgG1, V domains shown)
VH: QMQLVESGGGVVQPGRSLRLSCAASGFAFRTYGMHWVRQAPGKGLEWVAVIWYDGSNTHYADSVKGRFTITRDNSKNTLNLQMNSLRAEDTAVYYCARAPQWYLSAEAFDLWGQGTMVTVSS
VL: SYVLTQPPSVSVAPGQTARITCGGNLIGSKLVHWYQQKPGQAPVLVVYDDSDRPSRIPERFSGSNSGNTATLTISRVEAGDEADYYCQVWDHSSDHVVFGGGTKLTVL
notes: IgG (human IgG1 format, symmetrical IgG); also called BGD33.023; BGD33.0023
binding result [15]: no binding (tested: 100 nM IgG (not on the sheet))
binding result [16]: no binding (tested: 100 nM IgG (not on the sheet))
binding result [17]: no binding (tested: 100 nM IgG (not on the sheet))
